Measured values as given in patent EP1758924B1 (Council of Scientific and Industrial Research, dated 2005).

Legend:
[1] = target: T1, bovine serum albumin (BSA) (bovine, UniProt P02769 25-607); assay: reverse phage ELISA, A405
T1 construct: Negative control target in the reverse phage ELISA

[2] = target: T2, Hsp16.3 (16 kDa alpha-crystallin like heat-shock protein of Mycobacterium tuberculosis), recombinant, 6 X His … (Mycobacterium tuberculosis); assay: reverse phage ELISA on coated Hsp16.3, anti-M13-HRP, A405
T2 construct: also called M. tuberculosis Acr (Hsp16.3) protein

T1 sequence (P02769 25-607 limits assumed): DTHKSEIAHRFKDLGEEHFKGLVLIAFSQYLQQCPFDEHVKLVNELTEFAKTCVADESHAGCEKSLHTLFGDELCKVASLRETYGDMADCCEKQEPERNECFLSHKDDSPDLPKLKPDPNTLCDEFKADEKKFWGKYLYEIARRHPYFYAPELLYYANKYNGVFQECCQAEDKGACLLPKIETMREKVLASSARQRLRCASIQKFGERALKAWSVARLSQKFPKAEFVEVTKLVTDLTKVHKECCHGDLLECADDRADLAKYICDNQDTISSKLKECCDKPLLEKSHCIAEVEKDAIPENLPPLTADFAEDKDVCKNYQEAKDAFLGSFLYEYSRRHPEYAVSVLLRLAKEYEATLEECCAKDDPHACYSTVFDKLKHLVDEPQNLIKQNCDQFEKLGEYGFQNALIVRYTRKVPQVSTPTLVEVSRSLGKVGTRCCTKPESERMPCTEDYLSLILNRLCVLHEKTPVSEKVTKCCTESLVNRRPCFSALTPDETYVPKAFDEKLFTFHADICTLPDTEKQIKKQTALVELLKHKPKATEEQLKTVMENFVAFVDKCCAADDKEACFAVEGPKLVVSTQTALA

| Binder | binding result [1] | fold binding over BSA background [2] [fold] |
| --- | --- | --- |
| YPHHFKHRHIPI (Tested as whole phage in the reverse phage ELISA; not shown: fused to an M13 coat protein (spacer Gly-Gly-Gly-Ser is named)) | no binding |  |
| KMHATNH (Tested as whole phage in the reverse phage ELISA; not shown: fused to an M13 coat protein (spacer Gly-Gly-Gly-Ser is named)) | no binding | ~3 |
